The results in this text go back to the supplement of paper PMC10567573.

B1: MLL5 (parent)
chain: EQIAERKRKMVSWEASSLGLVTAA
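Note: lentivirally expressed fusions sorted by FACS into six bins by GFP to DsRed ratio, PSI derived from sequencing read proportions per bin multiplied by bin number.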

Variants of B1 are the subject of this data set. In words: protein stability index of a GFP-peptide fusion (GPS, HEK-293T) (PSI 1-6); higher = more stable. Conditions: c terminus: a fixed tail appended.
Consider EQIAERKRKMVSWHASSLGLVTAA, for which the protein stability index is 2.85. The result for EQIAERKRKMVSWEASSIGLVTAA reads 1.91. With EQIAERKRKMVSWEASSEGLVTAA the figure was 4.66. EQIAERKRKMVSWEASSCGLVTAA: the protein stability index turned out to be 2.97. The result for EQIAERKRKMVSWEASSFGLVTAA reads 2.43; that for EQIAERKRKMVSWEASSAGLVTAA, 3.31; that for EQIAERKRKMVSWEASSMGLVTAA, 3.16. The result for EQIAERKRKMVSWEASSQGLVTAA reads 3.72; that for EQIAERKRKMVSWEASSSGLVTAA, 1.92. With EQIAERKRKMVSWEASSVGLVTAA the figure was 2.53; with EQIAERKRKMVSWEASSRGLVTAA, 3.01.

Regarding EQIAERKRKMVSWEASSTGLVTAA, the protein stability index was found to be 3.5. For the variant EQIAERKRKMVSWEASSNGLVTAA, the protein stability index was 3.52. With EQIAERKRKMVSWEASSDGLVTAA the figure was 4.24. The result for EQIAERKRKMVSWEASSPGLVTAA reads 3.4; that for EQIAERKRKMVSWEASSKGLVTAA, 3.86. The result for EQIAERKRKMVSWEASSGGLVTAA reads 3.48.

As for EQIAERKRKMVSWEASSYGLVTAA, the protein stability index was found to be 2.77.

Consider EQIAERKRKMVSWEASSHGLVTAA, for which the protein stability index is 2.97.

Take EQIAERKRKMVSWEASSLVLVTAA: the protein stability index was determined as 2.9. The result for EQIAERKRKMVSWEASSLRLVTAA reads 3.16; that for EQIAERKRKMVSWEASSLALVTAA, 2.1.

On to EQIAERKRKMVSWEASSLYLVTAA, for which the protein stability index worked out at 1.84.

As for EQIAERKRKMVSWEASSLELVTAA, the protein stability index stood at 3.71. With EQIAERKRKMVSWEASSLNLVTAA the figure was 2.95; with EQIAERKRKMVSWEASSLCLVTAA, 2.38; with EQIAERKRKMVSWEASSLMLVTAA, 2.65. Regarding EQIAERKRKMVSWEASSLKLVTAA, the protein stability index was found to be 3.09. With EQIAERKRKMVSWEASSLDLVTAA the figure was 3.32.

Regarding EQIAERKRKMVSWEASSLSLVTAA, the protein stability index was 3.84. With EQIAERKRKMVSWEASSLTLVTAA the figure was 3.25; with EQIAERKRKMVSWEASSLHLVTAA, 2.68. The result for EQIAERKRKMVSWEASSLQLVTAA reads 3.49; that for EQIAERKRKMVSWEASSLWLVTAA, 1.74; that for EQIAERKRKMVSWEASSLGPVTAA, 3.72.

As for EQIAERKRKMVSWEASSLGQVTAA, the protein stability index came out at 3.47. Consider EQIAERKRKMVSWEASSLGKVTAA, for which the protein stability index stood at 3.9.

Regarding EQIAERKRKMVSWEASSLGTVTAA, the protein stability index came out at 3.87. As to EQIAERKRKMVSWEASSLGNVTAA, the protein stability index came out at 3.62.

Turning to EQIAERKRKMVSWEASSLGHVTAA, the protein stability index amounted to 3.54. As for EQIAERKRKMVSWEASSLGSVTAA, the protein stability index turned out to be 4.99. For EQIAERKRKMVSWEASSLGFVTAA, the protein stability index is 3.35.

Turning to EQIAERKRKMVSWEASSLGCVTAA, the protein stability index turned out to be 3.71. With EQIAERKRKMVSWEASSLGYVTAA the figure was 2.68; with EQIAERKRKMVSWEASSLGVVTAA, 3.37.

As to EQIAERKRKMVSWEASSLGIVTAA, the protein stability index was found to be 3.77.

With EQIAERKRKMVSWEASSLGEVTAA, the protein stability index amounted to 4.3. The result for EQIAERKRKMVSWEASSLGDVTAA reads 3.82; that for EQIAERKRKMVSWEASSLGWVTAA, 2.42. With EQIAERKRKMESWEASSLGLVTAA the figure was 4.18; with EQIAERKRKMMSWEASSLGLVTAA, 2.54; with EQIAERKRKMWSWEASSLGLVTAA, 3.34.

Consider EQIAERKRKMYSWEASSLGLVTAA, for which the protein stability index is 3.14. The result for EQIAERKRKMFSWEASSLGLVTAA reads 2.63. With EQIAERKRKMSSWEASSLGLVTAA, the protein stability index stood at 2.99.

With EQIAERKRKMGSWEASSLGLVTAA, the protein stability index was determined as 3.39.

EQIAERKRKMDSWEASSLGLVTAA: the protein stability index was 2.81. In the case of EQIAERKRKMLSWEASSLGLVTAA, the protein stability index was found to be 2.63. The result for EQIAERKRKMPSWEASSLGLVTAA reads 3.55; that for EQIAERKRKMHSWEASSLGLVTAA, 3.24; that for EQIAERKRKMCSWEASSLGLVTAA, 2.87. Regarding EQIAERKRKMQSWEASSLGLVTAA, the protein stability index was determined as 3.16. With EQIAERKRKMTSWEASSLGLVTAA the figure was 2.87; with EQIAERKRKMVSNEASSLGLVTAA, 4.02; with EQIAERKRKMVSKEASSLGLVTAA, 3.85. The result for EQIAERKRKMVSTEASSLGLVTAA reads 3.77.

On to EQIAERKRKMVSAEASSLGLVTAA, for which the protein stability index worked out at 4.19. The result for EQIAERKRKMVSQEASSLGLVTAA reads 4.56.

Turning to EQIAERKRKMVSLEASSLGLVTAA, the protein stability index amounted to 3.86.

With EQIAERKRKMVSEEASSLGLVTAA, the protein stability index was determined as 4.77. Turning to EQIAERKRKMVSSEASSLGLVTAA, the protein stability index was determined as 4.33. The result for EQIAERKRKMVSDEASSLGLVTAA reads 4.67. The result for EQIAERKRKMVSYEASSLGLVTAA reads 3.29; that for EQIAERKRKMVSHEASSLGLVTAA, 3.97; that for EQIAERKRKMVSVEASSLGLVTAA, 4. With EQIAERKRKMVSGEASSLGLVTAA, the protein stability index amounted to 4.82. On to EQIAERKRKMVSPEASSLGLVTAA, for which the protein stability index amounted to 4.38. The result for EQIAERKRKMVSMEASSLGLVTAA reads 3.07. With EQIAERKRKMVSWEHSSLGLVTAA the figure was 3; with EQIAERKRKMVSWEISSLGLVTAA, 2.56. With EQIAERKRKMVSWEPSSLGLVTAA the figure was 3.77; with EQIAERKRKMVSWEMSSLGLVTAA, 2.64. Take EQIAERKRKMVSWENSSLGLVTAA: the protein stability index turned out to be 2.67. As for EQIAERKRKMVSWERSSLGLVTAA, the protein stability index turned out to be 3.98. With EQIAERKRKMVSWEQSSLGLVTAA the figure was 2.93; with EQIAERKRKMVSWEKSSLGLVTAA, 2.74. The result for EQIAERKRKMVSWEFSSLGLVTAA reads 2.08. The result for EQIAERKRKMVSWEVSSLGLVTAA reads 2.56. With EQIAERKRKMVSWECSSLGLVTAA, the protein stability index was 2.28. The result for EQIAERKRKMVSWEESSLGLVTAA reads 3; that for EQIAERKRKMVSWEWSSLGLVTAA, 1.84; that for EQIAERKRKMVSWEYSSLGLVTAA, 2.26. With EQIAERKRKMVSWESSSLGLVTAA the figure was 2.94; with EQIAERKRKMVSWELSSLGLVTAA, 2.32.
